The source of these data is EP4793287A1, “TUMOR MICROENVIRONMENT SPECIFICALLY ACTIVATED CD47 ANTIBODY” (Affinity (Shanghai) Biopharmaceutical Co., Ltd., priority 2023, dated 2025).

Experiment [1] deals with antibody antigen (CD47) coated in the ELISA of Example 3 (UniProt Q08722). As to the kind of experiment: ELISA on coated antigen, ratio against wild-type 70H1. Background: An ELISA detects its analyte on a solid surface through an enzyme-linked reagent.
For experiment [2], the target named is T1, CD47 on CHOK1-CD47 cells (UniProt Q08722 19-323).
T1 construct: whole, on cells; The rabbits were immunized with human CD47, so human is likely
T1 sequence (Q08722 19-323 limits assumed): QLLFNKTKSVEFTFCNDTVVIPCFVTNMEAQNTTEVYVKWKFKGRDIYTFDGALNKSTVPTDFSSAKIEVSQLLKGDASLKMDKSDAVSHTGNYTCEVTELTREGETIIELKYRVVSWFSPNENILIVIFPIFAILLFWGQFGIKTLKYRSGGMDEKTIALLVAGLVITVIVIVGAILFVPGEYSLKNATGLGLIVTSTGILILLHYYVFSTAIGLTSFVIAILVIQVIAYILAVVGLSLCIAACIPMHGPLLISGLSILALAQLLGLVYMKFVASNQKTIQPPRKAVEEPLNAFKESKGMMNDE
Description: flow cytometry on CHOK1-CD47 cells.

Experiment [3] deals with T1, CD47 on CHOK1-CD47 cells. As to the kind of experiment: flow cytometry on CHOK1-CD47 cells. The source holds these as a separate data set. Background: A flow cytometer gives signals particle by particle.

Where two headings read alike, the source gives them in different places.

antibody antigen (CD47) coated in the ELISA of Example 3, sequence (Q08722 19-139 limits assumed): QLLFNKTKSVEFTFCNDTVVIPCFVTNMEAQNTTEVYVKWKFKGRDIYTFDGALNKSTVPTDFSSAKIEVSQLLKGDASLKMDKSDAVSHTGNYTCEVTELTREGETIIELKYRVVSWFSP

B1: 70H1 mutant VH-33 Y to C (antibody, V domains shown)
VH: QQQLEESGGGLVKPEGSLTLTCTASGFSFSSGCDMCWVRQAPGRGLEWIACIYTRSSGGTYYASWAKGRFTISKTSSTVDLRMTSLTAADTATYFCAGGRSSYRLNLWGQGALVTVSS
VL: DVVMTQTPSPVEAAVGGTVTIKCQASQSISNELSWYQQKPGQPPKLLIYRASTLESGVSSRFKGSGSGTEFTLTISDLECADAATYYCQSTFYGDYGNAFGGGTEVVVK
For the molecule B1, the Mutant Binding Strength (EC50 post-mutation / EC50 wild-type) in experiment [1] is 1.

B2: 70H1 mutant VH-55 R to C (antibody, V domains shown)
VH: QQQLEESGGGLVKPEGSLTLTCTASGFSFSSGYDMCWVRQAPGRGLEWIACIYTCSSGGTYYASWAKGRFTISKTSSTVDLRMTSLTAADTATYFCAGGRSSYRLNLWGQGALVTVSS
VL: DVVMTQTPSPVEAAVGGTVTIKCQASQSISNELSWYQQKPGQPPKLLIYRASTLESGVSSRFKGSGSGTEFTLTISDLECADAATYYCQSTFYGDYGNAFGGGTEVVVK
Consider B2, for which the Mutant Binding Strength (EC50 post-mutation / EC50 wild-type) in experiment [1] amounted to 1.

B3: 70H1 mutant VL-27 Q to C (antibody, V domains shown)
VH: QQQLEESGGGLVKPEGSLTLTCTASGFSFSSGYDMCWVRQAPGRGLEWIACIYTRSSGGTYYASWAKGRFTISKTSSTVDLRMTSLTAADTATYFCAGGRSSYRLNLWGQGALVTVSS
VL: DVVMTQTPSPVEAAVGGTVTIKCQASCSISNELSWYQQKPGQPPKLLIYRASTLESGVSSRFKGSGSGTEFTLTISDLECADAATYYCQSTFYGDYGNAFGGGTEVVVK
For the molecule B3, the Mutant Binding Strength (EC50 post-mutation / EC50 wild-type) in experiment [1] came out at 1.

B4: 70H1 mutant VL-98 N to C (antibody, V domains shown)
VH: QQQLEESGGGLVKPEGSLTLTCTASGFSFSSGYDMCWVRQAPGRGLEWIACIYTRSSGGTYYASWAKGRFTISKTSSTVDLRMTSLTAADTATYFCAGGRSSYRLNLWGQGALVTVSS
VL: DVVMTQTPSPVEAAVGGTVTIKCQASQSISNELSWYQQKPGQPPKLLIYRASTLESGVSSRFKGSGSGTEFTLTISDLECADAATYYCQSTFYGDYGCAFGGGTEVVVK
Regarding B4, the Mutant Binding Strength (EC50 post-mutation / EC50 wild-type) in experiment [1] is 1.

B5: 70H1 mutant VL-53 T to C (antibody, V domains shown)
VH: QQQLEESGGGLVKPEGSLTLTCTASGFSFSSGYDMCWVRQAPGRGLEWIACIYTRSSGGTYYASWAKGRFTISKTSSTVDLRMTSLTAADTATYFCAGGRSSYRLNLWGQGALVTVSS
VL: DVVMTQTPSPVEAAVGGTVTIKCQASQSISNELSWYQQKPGQPPKLLIYRASCLESGVSSRFKGSGSGTEFTLTISDLECADAATYYCQSTFYGDYGNAFGGGTEVVVK
Turning to B5, in experiment [1], the Mutant Binding Strength (EC50 post-mutation / EC50 wild-type) amounted to 1.

B6: 70H1 mutant VH-65 W to C (antibody, V domains shown)
VH: QQQLEESGGGLVKPEGSLTLTCTASGFSFSSGYDMCWVRQAPGRGLEWIACIYTRSSGGTYYASCAKGRFTISKTSSTVDLRMTSLTAADTATYFCAGGRSSYRLNLWGQGALVTVSS
VL: DVVMTQTPSPVEAAVGGTVTIKCQASQSISNELSWYQQKPGQPPKLLIYRASTLESGVSSRFKGSGSGTEFTLTISDLECADAATYYCQSTFYGDYGNAFGGGTEVVVK
Consider B6, for which, in experiment [1], the Mutant Binding Strength (EC50 post-mutation / EC50 wild-type) turned out to be 0.8.

B7: 70H1 mutant VL-92 F to C (antibody, V domains shown)
VH: QQQLEESGGGLVKPEGSLTLTCTASGFSFSSGYDMCWVRQAPGRGLEWIACIYTRSSGGTYYASWAKGRFTISKTSSTVDLRMTSLTAADTATYFCAGGRSSYRLNLWGQGALVTVSS
VL: DVVMTQTPSPVEAAVGGTVTIKCQASQSISNELSWYQQKPGQPPKLLIYRASTLESGVSSRFKGSGSGTEFTLTISDLECADAATYYCQSTCYGDYGNAFGGGTEVVVK
For B7, in experiment [1], the Mutant Binding Strength (EC50 post-mutation / EC50 wild-type) was determined as 1.3.

B8: 70H1 mutant VL-96 Y to C (antibody, V domains shown)
VH: QQQLEESGGGLVKPEGSLTLTCTASGFSFSSGYDMCWVRQAPGRGLEWIACIYTRSSGGTYYASWAKGRFTISKTSSTVDLRMTSLTAADTATYFCAGGRSSYRLNLWGQGALVTVSS
VL: DVVMTQTPSPVEAAVGGTVTIKCQASQSISNELSWYQQKPGQPPKLLIYRASTLESGVSSRFKGSGSGTEFTLTISDLECADAATYYCQSTFYGDCGNAFGGGTEVVVK
For the molecule B8, the Mutant Binding Strength (EC50 post-mutation / EC50 wild-type) in experiment [1] worked out at 1.

B9: 70H1 mutant VL-93 Y to C (antibody, V domains shown)
VH: QQQLEESGGGLVKPEGSLTLTCTASGFSFSSGYDMCWVRQAPGRGLEWIACIYTRSSGGTYYASWAKGRFTISKTSSTVDLRMTSLTAADTATYFCAGGRSSYRLNLWGQGALVTVSS
VL: DVVMTQTPSPVEAAVGGTVTIKCQASQSISNELSWYQQKPGQPPKLLIYRASTLESGVSSRFKGSGSGTEFTLTISDLECADAATYYCQSTFCGDYGNAFGGGTEVVVK
On to B9, for which the Mutant Binding Strength (EC50 post-mutation / EC50 wild-type) in experiment [1] stood at 1.

B10: 70H1 mutant VL-49 Y to C (antibody, V domains shown)
VH: QQQLEESGGGLVKPEGSLTLTCTASGFSFSSGYDMCWVRQAPGRGLEWIACIYTRSSGGTYYASWAKGRFTISKTSSTVDLRMTSLTAADTATYFCAGGRSSYRLNLWGQGALVTVSS
VL: DVVMTQTPSPVEAAVGGTVTIKCQASQSISNELSWYQQKPGQPPKLLICRASTLESGVSSRFKGSGSGTEFTLTISDLECADAATYYCQSTFYGDYGNAFGGGTEVVVK
On to B10, for which the Mutant Binding Strength (EC50 post-mutation / EC50 wild-type) in experiment [1] came to 0.9.

B11: 70H1-VH2VL2 (antibody, V domains shown)
VH: QQQLVESGGGVVQPGGSLRLSCAASGFTFSSGYDMCWVRQAPGKGLEWIACIYTRSSGGTYYASWAKGRFTISKDNSKNTLYLQMNSLRAEDTAVYYCAKGRSSYRLNLWGQGTLVTVSS
VL: DIQMTQSPSTLSASVGDRVTIKCQASQSISNELSWYQQKPGKAPKLLIYRASTLESGVSSRFSGSGSGTEFTLTISSLQPDDFATYYCQSTFYGDYGNAFGGGTKVEIK
notes: Humanized 70H1
For orientation: EC50 means the concentration that produces a half-maximal response. The low end stands for greater potency, the high end for weaker potency. B11 gave an EC50 with CD47 on CHOK1-CD47 cells [2] of 1.17 nM. This counts as single-digit nanomolar.

B12: 70H1-VH2VL1 (antibody, V domains shown)
VH: QQQLVESGGGVVQPGGSLRLSCAASGFTFSSGYDMCWVRQAPGKGLEWIACIYTRSSGGTYYASWAKGRFTISKDNSKNTLYLQMNSLRAEDTAVYYCAKGRSSYRLNLWGQGTLVTVSS
VL: DIQMTQSPSTLSASVGDRVTITCQASQSISNELSWYQQKPGKAPKLLIYRASTLESGVPSRFSGSGSGTEFTLTISSLQPDDFATYYCQSTFYGDYGNAFGGGTKVEIK
notes: Humanized 70H1
For B12, it took 1.09 nM to reach a half-maximal effect with CD47 on CHOK1-CD47 cells [2] (EC50).

B13: 70H1-VH1VL3 (antibody, V domains shown)
VH: QVQLVESGGGVVQPGGSLRLSCAASGFTFSSGYDMCWVRQAPGKGLEWVSCIYTRSSGGTYYASWAKGRFTISRDNSKNTLYLQMNSLRAEDTAVYYCAKGRSSYRLNLWGQGTLVTVSS
VL: DIQMTQSPSTLSASVGDRVTIKCQASQSISNELSWYQQKPGKPPKLLIYRASTLESGVSSRFSGSGSGTEFTLTISSLQPDDFATYYCQSTFYGDYGNAFGGGTKVEIK
notes: Humanized 70H1
As to B13, a half-maximal response in the experiment with CD47 on CHOK1-CD47 cells [2] (EC50) required 1.76 nM. Compared with the last molecule, the EC50 is about 1.6-fold higher.

B14: 70H1-VH2VL3 (antibody, V domains shown)
VH: QQQLVESGGGVVQPGGSLRLSCAASGFTFSSGYDMCWVRQAPGKGLEWIACIYTRSSGGTYYASWAKGRFTISKDNSKNTLYLQMNSLRAEDTAVYYCAKGRSSYRLNLWGQGTLVTVSS
VL: DIQMTQSPSTLSASVGDRVTIKCQASQSISNELSWYQQKPGKPPKLLIYRASTLESGVSSRFSGSGSGTEFTLTISSLQPDDFATYYCQSTFYGDYGNAFGGGTKVEIK
notes: Humanized 70H1
In turn, B14 displayed an EC50 with CD47 on CHOK1-CD47 cells [2] of 1.05 nM.

B15: 70H1-VH1VL1 (antibody, V domains shown)
VH: QVQLVESGGGVVQPGGSLRLSCAASGFTFSSGYDMCWVRQAPGKGLEWVSCIYTRSSGGTYYASWAKGRFTISRDNSKNTLYLQMNSLRAEDTAVYYCAKGRSSYRLNLWGQGTLVTVSS
VL: DIQMTQSPSTLSASVGDRVTITCQASQSISNELSWYQQKPGKAPKLLIYRASTLESGVPSRFSGSGSGTEFTLTISSLQPDDFATYYCQSTFYGDYGNAFGGGTKVEIK
notes: Humanized 70H1
Molecule B15 showed an EC50 with CD47 on CHOK1-CD47 cells [2] of 1.04 nM.

B16: 70H1-VH3VL2 (antibody, V domains shown)
VH: QQQLVESGGGVVQPGGSLRLSCAASGFSFSSGYDMCWVRQAPGKGLEWIACIYTRSSGGTYYASWAKGRFTISKDNSKNTLYLQMNSLRAEDTAVYFCAKGRSSYRLNLWGQGTLVTVSS
VL: DIQMTQSPSTLSASVGDRVTIKCQASQSISNELSWYQQKPGKAPKLLIYRASTLESGVSSRFSGSGSGTEFTLTISSLQPDDFATYYCQSTFYGDYGNAFGGGTKVEIK
notes: Humanized 70H1
On to B16, for which the EC50 with CD47 on CHOK1-CD47 cells [2] came to 0.64 nM.

B17: 70H1-VH3VL3 (antibody, V domains shown)
VH: QQQLVESGGGVVQPGGSLRLSCAASGFSFSSGYDMCWVRQAPGKGLEWIACIYTRSSGGTYYASWAKGRFTISKDNSKNTLYLQMNSLRAEDTAVYFCAKGRSSYRLNLWGQGTLVTVSS
VL: DIQMTQSPSTLSASVGDRVTIKCQASQSISNELSWYQQKPGKPPKLLIYRASTLESGVSSRFSGSGSGTEFTLTISSLQPDDFATYYCQSTFYGDYGNAFGGGTKVEIK
notes: Humanized 70H1
B17 came in with an EC50 in the experiment with CD47 on CHOK1-CD47 cells [2] of 1.01 nM. This EC50 is about 1.6-fold higher than that of the molecule before.

B18: 70H1-VH3VL1 (antibody, V domains shown)
VH: QQQLVESGGGVVQPGGSLRLSCAASGFSFSSGYDMCWVRQAPGKGLEWIACIYTRSSGGTYYASWAKGRFTISKDNSKNTLYLQMNSLRAEDTAVYFCAKGRSSYRLNLWGQGTLVTVSS
VL: DIQMTQSPSTLSASVGDRVTITCQASQSISNELSWYQQKPGKAPKLLIYRASTLESGVPSRFSGSGSGTEFTLTISSLQPDDFATYYCQSTFYGDYGNAFGGGTKVEIK
notes: Humanized 70H1, the final preferred antibody
In the experiment with CD47 on CHOK1-CD47 cells [2], B18 returned an EC50 of 0.23 nM.

B19: 70G1 (antibody, V domains shown)
VH: QSVKESEGGLFKPTDTLTLTCTVSGFSLSNYAINWVRQAPGNGLEWIGIINGYGMTYYASWAKSRSTITRNTSENTVTLKLTSLTAADTATYFCARDRYGSYVGYSSDIWGPGTLVTVSS
VL: AYDMTQTPASVEAAVGGTVTIKCQASQNISSRLAWYQQKPGQPPKLLIYGTSTLASGVPSRFRGSGSGTQFSLTISDLECADAATYYCQHGYYYSSSFTTYNAFGGGTEVVVK
notes: Recombinant rabbit monoclonal antibody expressed in Expi293; it was detected with anti-human IgG Fc
On to B19, for which a half-maximal response with CD47 on CHOK1-CD47 cells [3] (EC50) required 2.88 nM.

B20: 69F12 (antibody, V domains shown)
VH: QSVEESEGGLFKPTDTLTLTCTISGFSLSNYDMIWVRQAPGNGLEYIGIISSRDKAGHAAWAKRRSTITRNPKENTVTLKMTSLTVADTATYFCARRFSSMHGLDIWGPGTLVTVSS
VL: AYDMTQTPSSVSAAVGGTVTIKCQASQSISNYLSWYQQKPGQPPKLLIYLASTLASGVPSRFKGSGSGTQFTLTISGVQCADAATYYCQQGYSSDSVDNVFGGGTEVVVK
notes: as for B19
Take B20: the EC50 with CD47 on CHOK1-CD47 cells [3] was 0.8 nM. This EC50 lies about 3.6-fold lower than the previous one.
